Here are results for 2 molecules from US20230192865A1.

Residue numbers refer to the chain shown, from its start.

The target in assay [1] is T1, Galectin-10 protein with His tag (expressed and purified with pk277) (Homo sapiens (Human)) (UniProt Q05315).
T1 sequence: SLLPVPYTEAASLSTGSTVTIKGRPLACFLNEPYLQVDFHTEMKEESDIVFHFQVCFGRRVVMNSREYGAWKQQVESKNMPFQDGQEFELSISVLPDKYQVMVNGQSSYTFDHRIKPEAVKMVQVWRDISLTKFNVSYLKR
Briefly: ELISA, His-tagged Galectin-10 coated at 2500 ng/mL, 254# diluted 1:200, anti-GST mouse antibody and HRP goat anti-mouse, repeat 3.

Assay [2] has as its target T1, Galectin-10 protein with His tag (expressed and purified with pk277) (Homo sapiens (Human)). Briefly: ELISA, His-tagged Galectin-10 coated at 500 ng/mL, 254# diluted 1:200, anti-GST mouse antibody and HRP goat anti-mouse, repeat 1. (In an ELISA, binding on a coated surface is turned into a signal by an enzyme label.)
The target is the same in assay [3]. The assay can be described thus: ELISA, His-tagged Galectin-10 coated at 2500 ng/mL, 254# diluted 1:200, anti-GST mouse antibody and HRP goat anti-mouse, repeat 1.
Assay [4] shares this target. The assay can be described thus: ELISA, His-tagged Galectin-10 coated at 125 ng/mL, 254# diluted 1:200, anti-GST mouse antibody and HRP goat anti-mouse, average.
Assay [5] has the same target. The assay can be described thus: ELISA, His-tagged Galectin-10 coated at 2500 ng/mL, 254# diluted 1:200, anti-GST mouse antibody and HRP goat anti-mouse, repeat 2.
The target is the same in assay [6]. The assay can be described thus: ELISA, His-tagged Galectin-10 coated at 500 ng/mL, 254# diluted 1:200, anti-GST mouse antibody and HRP goat anti-mouse, average.
For assay [7] the target is unchanged. The assay can be described thus: ELISA, His-tagged Galectin-10 coated at 125 ng/mL, 254# diluted 1:200, anti-GST mouse antibody and HRP goat anti-mouse, repeat 1.
The target is the same in assay [8]. Briefly: ELISA, His-tagged Galectin-10 coated at 125 ng/mL, 254# diluted 1:200, anti-GST mouse antibody and HRP goat anti-mouse, repeat 3.
Assay [9] has the same target. The assay can be described thus: ELISA, His-tagged Galectin-10 coated at 500 ng/mL, 254# diluted 1:200, anti-GST mouse antibody and HRP goat anti-mouse, repeat 3.
For assay [10] the target is unchanged. Briefly: ELISA, His-tagged Galectin-10 coated at 2500 ng/mL, 254# diluted 1:200, anti-GST mouse antibody and HRP goat anti-mouse, average.
Assay [11] has the same target. Briefly: ELISA on coated His-tagged Galectin-10, anti-GST detection.
For assay [12] the target is unchanged. Briefly: ELISA, His-tagged Galectin-10 coated at 125 ng/mL, 254# diluted 1:200, anti-GST mouse antibody and HRP goat anti-mouse, repeat 2.
Assay [13] shares this target. The assay can be described thus: ELISA, His-tagged Galectin-10 coated at 500 ng/mL, 254# diluted 1:200, anti-GST mouse antibody and HRP goat anti-mouse, repeat 2.
Assay [14] has the same target. The assay can be described thus: ELISA, His-tagged Galectin-10 coated at 125 ng/mL, 225# diluted 1:200, anti-GST mouse antibody and HRP goat anti-mouse, repeat 1.
The target is the same in assay [15]. Briefly: ELISA, His-tagged Galectin-10 coated at 2500 ng/mL, 225# diluted 1:200, anti-GST mouse antibody and HRP goat anti-mouse, average.
Assay [16] has the same target. The assay can be described thus: ELISA, His-tagged Galectin-10 coated at 2500 ng/mL, 225# diluted 1:200, anti-GST mouse antibody and HRP goat anti-mouse, repeat 1.
For assay [17] the target is unchanged. The assay can be described thus: ELISA, His-tagged Galectin-10 coated at 125 ng/mL, 225# diluted 1:200, anti-GST mouse antibody and HRP goat anti-mouse, repeat 2.
Assay [18] shares this target. Briefly: ELISA, His-tagged Galectin-10 coated at 500 ng/mL, 225# diluted 1:200, anti-GST mouse antibody and HRP goat anti-mouse, average.
The target is the same in assay [19]. Briefly: ELISA, His-tagged Galectin-10 coated at 125 ng/mL, 225# diluted 1:200, anti-GST mouse antibody and HRP goat anti-mouse, repeat 3.
Assay [20] has the same target. The assay can be described thus: ELISA, His-tagged Galectin-10 coated at 2500 ng/mL, 225# diluted 1:200, anti-GST mouse antibody and HRP goat anti-mouse, repeat 3.
For assay [21] the target is unchanged. Briefly: ELISA, His-tagged Galectin-10 coated at 500 ng/mL, 225# diluted 1:200, anti-GST mouse antibody and HRP goat anti-mouse, repeat 3.
Assay [22] shares this target. Briefly: ELISA, His-tagged Galectin-10 coated at 125 ng/mL, 225# diluted 1:200, anti-GST mouse antibody and HRP goat anti-mouse, average.
Assay [23] shares this target. The assay can be described thus: ELISA, His-tagged Galectin-10 coated at 2500 ng/mL, 225# diluted 1:200, anti-GST mouse antibody and HRP goat anti-mouse, repeat 2.
Assay [24] shares this target. The assay can be described thus: ELISA, His-tagged Galectin-10 coated at 500 ng/mL, 225# diluted 1:200, anti-GST mouse antibody and HRP goat anti-mouse, repeat 2.
Assay [25] has the same target. The assay can be described thus: ELISA, His-tagged Galectin-10 coated at 500 ng/mL, 225# diluted 1:200, anti-GST mouse antibody and HRP goat anti-mouse, repeat 1.

B1: 254# nano antibody (SEQ ID NO: 3) (VHH, not shown: a dimerising Fc or GST; small tags and cut ends)
VHH: EVQLQASGGGFVQPGGSLRLSCAASGFTFSSFAMGWFRQAPGKEREFVSAISSGGGNTYYADSVKGRFTISRDNSKNTVYLQMNSLRAEDTATYYCVTPGGRLWYYRYDYRCQGTQVTVSS
Regarding B1, the OD at 450 nm in assay [1] was 1.34 OD450; in assay [2] it was 0.615 OD450; in assay [3], 1.32 OD450; in assay [4], 0.373 OD450; in [5], 1.2 OD450; in [6], 0.581 OD450. The OD at 450 nm in assay [7] was found to be 0.397 OD450; in assay [8] it was 0.37 OD450; in [9], 0.577 OD450; in assay [10], 1.28 OD450; in [12], 0.353 OD450; in assay [13] it was 0.551 OD450. In [11], this molecule registered a minimum test concentration of 125 ng/mL.

B2: 225# nano antibody (SEQ ID NO: 4) (VHH, not shown: a dimerising Fc or GST; small tags and cut ends)
VHH: B1 VHH with F32Y, F47L
For B2, the OD at 450 nm in [14] was determined as 0.155 OD450; in [15] it was 0.707 OD450; in assay [16], 0.74 OD450; in assay [17] it was 0.153 OD450; in [18], 0.265 OD450; in assay [19], 0.173 OD450. Besides, the OD at 450 nm stood at 0.681 OD450 in [20]; 0.279 OD450 in assay [21]; 0.16 OD450 in assay [22]; 0.7 OD450 in [23]; 0.26 OD450 in assay [24]; 0.257 OD450 in assay [25]. Also, the minimum test concentration in [11] was 125 ng/mL.
